Our source for the self-cleavage values is the RNAGym collection of RNA variant scans (doi:10.7554/elife.80360).

To fix the notation:
B1: Hairpin Ribozyme (parent)
chain: GUCCUCUUUCACGUGCGCGUGAAAGAGAGAAGUGAACCAGAGAAACACACGUUGUGGUAUAUUACCUGGUA

Variants of B1 are the subject of this data set. Put plainly: self-cleavage, relative activity (ratio to wild type); higher = more cleavage; co-transcriptional.
For the variant GUACUCUUUCACGUGCGCGUGAAAGAGAGAAGUGAACCAGAGAAACACACGUUGUGGUAUAUUACCUUGUA [C3A G68U], the self-cleavage turned out to be 0.195.

For GUCCUCUUUCACGUGCGCGUGAAAGGGAGAAGUGAACGAGAGAAACACACGUUGUGGUAUAUUACCUGGUA [A26G C38G], the self-cleavage turned out to be 0.138.

GUCCUCUUUCACGUGCGCGUGAAAGAUAGAAGUGAACCAGAGAAACACACGUUCUGGUAUAUUACCUGGUA [G27U G54C]: the self-cleavage is 0.133.

GUCCUCUUUCACGUGCGCGUGAAAGAGACAAGUGAACCAGAGAAACAAACGUUGUGGUAUAUUACCUGGUA [G29C C48A]: the self-cleavage worked out at 0.136.

As to GUCCUGUUUCACGUGCGCGUGAAAGAGAGAAGUGAACCAGAGAAACACACGUUGUGGUAUAUUACCUCGUA [C6G G68C], the self-cleavage came to 0.131.

For the variant GUCGUCUUUCACGUGCGAGUGAAAGAGAGAAGUGAACCAGAGAAACACACGUUGUGGUAUAUUACCUGGUA [C4G C18A], the self-cleavage amounted to 0.194.

For the variant GUCCUCUUUCACGUGCGCGUGCAAGAGAGAAGUGAACCAGAGAAAUACACGUUGUGGUAUAUUACCUGGUA [A22C C46U], the self-cleavage was 0.141.

For the variant GUCCUCUUUCUCGUGCGCGUGAAAGAGGGAAGUGAACCAGAGAAACACACGUUGUGGUAUAUUACCUGGUA [A11U A28G], the self-cleavage was found to be 0.929.

For GUCCUCUUUCACGUGCGCGUGAAAGAGAGAAGUGAACCUGAGAAACACACGUUGUGGUAUCUUACCUGGUA [A39U A61C], the self-cleavage turned out to be 0.187.

Consider GUCCUCUUUCACGUGCUCGUGAAAGCGAGAAGUGAACCAGAGAAACACACGUUGUGGUAUAUUACCUGGUA [G17U A26C], for which the self-cleavage is 0.682.

Consider GUCCUCUUUCACGUGCGCGUGAAAGAGAGAAGUAAACCACAGAAACACACGUUGUGGUAUAUUACCUGGUA [G34A G40C], for which the self-cleavage was 0.174.

For GUCCUCUUUCACCUGCGCGUGAAAGAGAGAAGUGAACCAGAGAAACACACGUUGUGGUAUAUAACCUGGUA [G13C U63A], the self-cleavage was found to be 0.173.

GUCCUCUUUCACGUGCGCGUGAAAGAGAGAAGUCAACCAGAGAAACACACGUUCUGGUAUAUUACCUGGUA [G34C G54C]: the self-cleavage was 0.735.

On to GUCCUCUUUCCCGUGCGCGUGAAAGAGAGAAGUGACCCAGAGAAACACACGUUGUGGUAUAUUACCUGGUA [A11C A36C], for which the self-cleavage was 0.471.

For GUCCUCUUUCACGUGCGCGUGAAAGAGAGAAGUGAACCAGAGAAACGCACGUUGUGGUAUAUUACAUGGUA [A47G C66A], the self-cleavage came out at 0.138.

As for GUCCUCUUUCACGUGCGCGUGACAAAGAGAAGUGAACCAGAGAAACACACGUUGUGGUAUAUUACCUGGUA [A23C G25A], the self-cleavage amounted to 0.235.

For GUCCUCUUUCACGUGCGCGUGAAAGAGAGAAGUGAACCAGAGAAACACUCGGUGUGGUAUAUUACCUGGUA [A49U U52G], the self-cleavage was determined as 0.364.

Take GUCCUCUUUCACGUGCGCGUGAAAGAGAGAAGUGAACCAGAGAAACACACGCUGUGGUAUAUUACCCGGUA [U52C U67C]: the self-cleavage is 0.274.

On to GUCCUCUUUCGCGUGCGCGGGAAAGAGAGAAGUGAACCAGAGAAACACACGUUGUGGUAUAUUACCUGGUA [A11G U20G], for which the self-cleavage is 0.982.

GUCCUCUUUCACGUGCUCGUGAAAGAGAGAAGUGAACCAGAGAAACACACGUUGUGGUAUAUUACCUGGCA [G17U U70C]: the self-cleavage came out at 0.859.

In the case of GUCCUCUUUCGCGUGCGCGUGAAUGAGAGAAGUGAACCAGAGAAACACACGUUGUGGUAUAUUACCUGGUA [A11G A24U], the self-cleavage is 0.968.

Take GUCCUCUAUCACGUGCGCGUGAAAGAGAGAAGUGAACCAGAGAUACACACGUUGUGGUAUAUUACCUGGUA [U8A A44U]: the self-cleavage was determined as 0.0969.

As to GUCCUCUUUCACGUGCGCGUGAAAGAGAGAAGUGAACCAGAGAGACACACGUUGUGGUAUAUAACCUGGUA [A44G U63A], the self-cleavage is 0.207.

For GUCCUCUUUCACGUGCGCGUGAAAGAGAGAAGUGAACCAGAGAAACACACGUUGUGGUAUAUUACAUCGUA [C66A G68C], the self-cleavage worked out at 0.161.

As to GUCCUCUUUCACGUGCGCGUGAAAGAGAGAAGUGAAGCAGAGACACACACGUUGUGGUAUAUUACCUGGUA [C37G A44C], the self-cleavage is 0.16.

Regarding GUCCUCUUUCACGUGCGCGUGAGAGAGAGAAGUGAACCAGAGAAACACAGGUUGUGGUAUAUUACCUGGUA [A23G C50G], the self-cleavage was found to be 0.153.

For the variant GUUCUCUUUCACGUGCGCGUGAAAGAGAGAAGUGAACCAGAGAAACACACGUUGUGGUGUAUUACCUGGUA [C3U A59G], the self-cleavage was found to be 0.0802.

GUCCUCUUUCACGUGCGGGUGAAAGAGAGAAGUGAACCAGCGAAACACACGUUGUGGUAUAUUACCUGGUA [C18G A41C]: the self-cleavage came out at 0.952.

For GUCCUCUUUCACGAGCGCCUGAAAGAGAGAAGUGAACCAGAGAAACACACGUUGUGGUAUAUUACCUGGUA [U14A G19C], the self-cleavage is 0.819.

For the variant GUCCUCUUUCACGUGCGCGUGAAAGAGCGAAGUGAAGCAGAGAAACACACGUUGUGGUAUAUUACCUGGUA [A28C C37G], the self-cleavage was 0.199.

Consider AUCCUCUUUCACGUGCGCGUGAAAGAGAGAAGUGAACCAGAGAAACACACGUUGUGGUCUAUUACCUGGUA [G1A A59C], for which the self-cleavage came out at 0.22.

As to GUCCUCUUUCACGUUCGCGUGAAAGAGAGAAGUGAACCAGAGAAACACACGUUGUGGUUUAUUACCUGGUA [G15U A59U], the self-cleavage came out at 0.0728.

As for AUCCUCUUUCACGUGCGCGUGAAAGAGAGAAGUGAACCAGAGAAACACACGUUUUGGUAUAUUACCUGGUA [G1A G54U], the self-cleavage is 0.153.

As for GUCCUCUUUCACGUGCGCGUGAAAGAGAGAAGUGAACCAGAGAAACACACUUAGUGGUAUAUUACCUGGUA [G51U U53A], the self-cleavage is 1.07.

On to GUCCUCUUUCACGUGCGCGUGAAAGAGAGAAGUUAACCAGAGAAACACACAUUGUGGUAUAUUACCUGGUA [G34U G51A], for which the self-cleavage worked out at 1.57.

Take GUCCUCUUUCACGUGCGCGUGAAAGAGAGAAGUGAACCAGAGAAACACACGUUGUGGUAUAUUACCAAGUA [U67A G68A]: the self-cleavage is 0.115.

As for CUCCUCUUUCACGUGCGCGUGAGAGAGAGAAGUGAACCAGAGAAACACACGUUGUGGUAUAUUACCUGGUA [G1C A23G], the self-cleavage stood at 0.132.

For GUCCUCUUUCACGUGCGCGUGAAAGAGAGAAGUGAACCAGAGAAACCCACGUUGCGGUAUAUUACCUGGUA [A47C U55C], the self-cleavage is 0.233.
